The values below come from article PMC4021333.

In this assay the target is Dipeptidyl aminopeptidase BII (DAP BII) from Pseudoxanthomonas mexicana WO24, wild type (Pseudoxanthomonas mexicana WO24) (UniProt V5YM14). Nature of the assay: enzyme inhibition assay.

One may read the Ki as the equilibrium dissociation constant of an inhibitor or competing ligand from its target. Low readings indicate higher affinity, high ones lower affinity.

Sequence of Dipeptidyl aminopeptidase BII (DAP BII) from Pseudoxanthomonas mexicana WO24, wild type (Pseudoxanthomonas mexicana WO24) (V5YM14 25-722): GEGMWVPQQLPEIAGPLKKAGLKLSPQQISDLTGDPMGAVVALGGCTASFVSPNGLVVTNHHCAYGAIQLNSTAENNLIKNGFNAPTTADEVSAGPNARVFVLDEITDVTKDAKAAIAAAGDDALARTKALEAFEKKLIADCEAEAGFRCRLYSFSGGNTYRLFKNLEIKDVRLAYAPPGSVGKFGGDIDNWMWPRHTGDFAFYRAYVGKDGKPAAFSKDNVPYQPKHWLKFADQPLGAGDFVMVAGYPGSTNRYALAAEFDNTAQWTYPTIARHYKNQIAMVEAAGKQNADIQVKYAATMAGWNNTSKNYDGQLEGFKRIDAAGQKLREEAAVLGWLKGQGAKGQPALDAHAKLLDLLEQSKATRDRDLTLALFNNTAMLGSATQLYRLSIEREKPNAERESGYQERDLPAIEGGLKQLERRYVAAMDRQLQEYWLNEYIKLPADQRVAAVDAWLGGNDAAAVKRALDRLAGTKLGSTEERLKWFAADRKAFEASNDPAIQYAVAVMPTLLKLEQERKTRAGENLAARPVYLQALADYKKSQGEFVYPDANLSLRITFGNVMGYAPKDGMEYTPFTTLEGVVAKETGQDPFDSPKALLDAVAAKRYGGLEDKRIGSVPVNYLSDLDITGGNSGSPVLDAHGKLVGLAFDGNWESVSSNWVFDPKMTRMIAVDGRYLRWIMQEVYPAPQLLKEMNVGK

dipeptide Val-Tyr had a Ki of 410 µM.
